{
  "source": "patent US20050287542A1",
  "about": "(YALE UNIVERSITY, published 2005)",
  "binders": {"B1": {"name": "PPKID6^U (designed binder)", "peptide": "GISWPTFEGDDAPVRRLSFFYILLDLYLDAPGVC(acetamidofluorescein)-NH2", "notes": "also called PPKID6 (unphosphorylated)"}},
  "target": "T1, GST-KIXY650A (Y650A variant of CBP KIX) (UniProt P45481 586-665, limits assumed)",
  "T1 construct": "domain: KIX; not shown: GST tag",
  "T1 sequence (P45481 586-665 Y650A limits assumed)": "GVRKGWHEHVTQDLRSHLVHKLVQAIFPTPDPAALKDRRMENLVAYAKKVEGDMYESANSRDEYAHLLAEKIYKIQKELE",
  "test": "fluorescence polarization, 25 nM fluorescein-labelled peptide, GST-KIXY650A titrated",
  "note": "Ends that are not written are not given here.",
  "data": [
    {"binder": "B1", "values": [
      {"measurement": "EC50 (read off the curve)", "value": "~700", "unit": "nM"}
    ]}
  ]
}
